According to publication PMC8295636:

Biological target: p53
Experiment: two-hybrid

SV40T (natural protein)
fold increase of reporter expression over negative controls: > 130 times
